T1: FcγRIIa 131H expressed on HEK cells (human, UniProt P12318 34-317)
T1 sequence: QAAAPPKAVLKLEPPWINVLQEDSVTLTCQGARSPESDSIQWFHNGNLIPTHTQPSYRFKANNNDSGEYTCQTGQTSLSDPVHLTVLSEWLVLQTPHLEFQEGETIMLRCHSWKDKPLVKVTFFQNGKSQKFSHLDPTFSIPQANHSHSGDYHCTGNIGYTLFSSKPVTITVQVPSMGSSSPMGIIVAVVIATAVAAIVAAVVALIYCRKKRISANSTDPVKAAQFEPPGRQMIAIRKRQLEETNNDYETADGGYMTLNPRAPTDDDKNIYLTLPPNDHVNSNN

T2: FcγRIIa extracellular domain with H131, histag (Biorbyt, batch ORB138408) (human, UniProt P12318 34-217)
T2 construct: Bought protein; also called FcγRIIa H131; not shown: histag
T2 sequence: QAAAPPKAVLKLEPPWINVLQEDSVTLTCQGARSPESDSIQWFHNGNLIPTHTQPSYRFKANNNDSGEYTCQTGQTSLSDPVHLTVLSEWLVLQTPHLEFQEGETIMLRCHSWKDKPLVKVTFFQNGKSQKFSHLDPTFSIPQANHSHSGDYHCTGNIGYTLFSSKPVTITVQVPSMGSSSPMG

T3: FcγRIIb expressed on HEK cells (UniProt P31994 43-310, limits assumed)
T3 construct: whole, on cells; also called HEK293T-FcγRIIb
T3 sequence (looked up): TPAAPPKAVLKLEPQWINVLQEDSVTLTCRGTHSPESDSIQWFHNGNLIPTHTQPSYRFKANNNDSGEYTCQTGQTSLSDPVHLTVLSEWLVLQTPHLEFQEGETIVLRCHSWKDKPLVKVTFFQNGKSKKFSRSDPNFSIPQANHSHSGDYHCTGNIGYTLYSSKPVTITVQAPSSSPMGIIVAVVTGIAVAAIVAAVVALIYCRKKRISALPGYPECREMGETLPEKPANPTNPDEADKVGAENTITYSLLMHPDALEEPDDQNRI

B1: mAb 5 (antibody, human IgG1, kappa, V domains shown)
VH: QVQLVQSGAEVAKPGASVKVSCKASGYTFTDYWMQWVRQAPGQGLEWIGTIYPGDGDTSYAQKFQGRVTMTADTSTSTVYMELSSLRSEDTAVYYCARGDYYGSNSLDYWGQGTLVTVSS
VL: DIVMTQSPDSLAVSLGERATINCKSSQDVSTVLAWYQQKPGQSPRRLIYSASYRYIGVPDRFSGSGSGTDFTLTISSLQAEDVAVYYCQQHYSPPYTFGGGTKLEIKR
notes: Humanized heavy and light chains with engineered Fc; also called anti-CD38 mAb 5; HEAVY CHAIN 5 / LIGHT CHAIN 2
B2: mAb 7 (antibody, human IgG1, kappa, V domains shown)
VH: QVQLVQSGAEVAKPGASVKVSCKASGYTFTDYWMQWVKQRPGQGLEWIGTIYPGDGDTGYAQKFQGRVTMTADKSTSTVYMELSSLRSEDTAVYYCARGDYYGSNSLDYWGQGTLVTVSS
VL: DIVMTQSPDSLAVSLGERATINCKSSQDVSTVLAWYQQKPGQSPRRLIYSASYRYIGVPDRFSGSGSGTDFTLTISSLQAEDVAVYYCQQHYSPPYTFGGGTKLEIKR
notes: Humanized heavy and light chains with engineered Fc; also called anti-CD38 mAb 7; HEAVY CHAIN 6 / LIGHT CHAIN 2
B3: mAb 8 (antibody, human IgG1, kappa, V domains shown)
VH: QVQLVQSGAEVAKPGASVKVSCKASGYTFTDYWMQWVKQRPGQGLEWIGTIYPGDGDTGYAQKFQGRVTMTADKSTSTVYMELSSLRSEDTAVYYCARGDYYGSNSLDYWGQGTLVTVSS
VL: DIVMTQSPDSLAVSLGERATINCKSSQDVSTVVAWYQQKPGQSPRRLIYSASYRYIGVPDRFSGSGSGTDFTFTISSLQAEDVAVYYCQQHYSPPYTFGGGTKLEIKR
notes: Humanized heavy and light chains with engineered Fc; also called anti-CD38 mAb 8; HEAVY CHAIN 6 / LIGHT CHAIN 3
B4: mAb 6 (antibody, human IgG1, kappa, V domains shown)
VH: QVQLVQSGAEVAKPGASVKVSCKASGYTFTDYWMQWVRQAPGQGLEWIGTIYPGDGDTSYAQKFQGRVTMTADTSTSTVYMELSSLRSEDTAVYYCARGDYYGSNSLDYWGQGTLVTVSS
VL: DIVMTQSPDSLAVSLGERATINCKSSQDVSTVVAWYQQKPGQSPRRLIYSASYRYIGVPDRFSGSGSGTDFTFTISSLQAEDVAVYYCQQHYSPPYTFGGGTKLEIKR
notes: Humanized heavy and light chains with engineered Fc; also called anti-CD38 mAb 6; HEAVY CHAIN 5 / LIGHT CHAIN 3
B5: mAb 1 (antibody, human IgG1, kappa)
heavy: not shown
light: DIVMTQSHLSMSTSLGDPVSITCKASQDVSTVVAWYQQKPGQSPRRLIYSASYRYIGVPDRFTGSGAGTDFTFTISSVQAEDLAVYYCQQHYSPPYTFGGGTKLEIKRTVAAPSVFIFPPSDEQLKSGTASVVCLLNNFYPREAKVQWKVDNALQSGNSQESVTEQDSKDSTYSLSSTLTLSKADYEKHKVYACEVTHQGLSSPVTKSFNRGEC
notes: also called HEAVY CHAIN 1 / LIGHT CHAIN 1
B6: mAb 2 (antibody, human IgG1, kappa)
heavy: not shown
light: DIVMTQSHLSMSTSLGDPVSITCKASQDVSTVVAWYQQKPGQSPRRLIYSASYRYIGVPDRFTGSGAGTDFTFTISSVQAEDLAVYYCQQHYSPPYTFGGGTKLEIKRTVAAPSVFIFPPSDEQLKSGTASVVCLLNNFYPREAKVQWKVDNALQSGNSQESVTEQDSKDSTYSLSSTLTLSKADYEKHKVYACEVTHQGLSSPVTKSFNRGEC
notes: also called HEAVY CHAIN 2 / LIGHT CHAIN 1
B7: mAb 4 (antibody, human IgG1, kappa)
heavy: QVQLVQSGAEVAKPGTSVKLSCKASGYTFTDYWMQWVKQRPGQGLEWIGTIYPGDGDTGYAQKFQGKATLTADKSSKTVYMHLSSLASEDSAVYYCARGDYYGSNSLDYWGQGTSVTVSSASTKGPSVFPLAPSSKSTSGGTAALGCLVKDYFPEPVTVSWNSGALTSGVHTFPAVLQSSGLYSLSSVVTVPSSSLGTQTYICNVNHKPSNTKVDKKVEPKSCDKTHTCPPCPAPELLAGPDVFLFPPKPKDTLMISRTPEVTCVVVDVSHEDPEVKFNWYVDGVEVHNAKTKPREEQYNSTYRVVSVLTVLHQDWLNGKEYKCKVSNKALPLPEEKTISKAKGQPREPQVYTLPPSRDELTKNQVSLTCLVKGFYPSDIAVEWESNGQPENNYKTTPPVLDSDGSFFLYSKLTVDKSRWQQGNVFSCSVMHEALHNHYTQKSLSLSPG
light: DIVMTQSHLSMSTSLGDPVSITCKASQDVSTVVAWYQQKPGQSPRRLIYSASYRYIGVPDRFTGSGAGTDFTFTISSVQAEDLAVYYCQQHYSPPYTFGGGTKLEIKRTVAAPSVFIFPPSDEQLKSGTASVVCLLNNFYPREAKVQWKVDNALQSGNSQESVTEQDSKDSTYSLSSTLTLSKADYEKHKVYACEVTHQGLSSPVTKSFNRGEC
notes: also called HEAVY CHAIN 4 / LIGHT CHAIN 1

Assays:
[1] = target: T4, human CD38 (human, UniProt P28907 43-300, limits assumed); assay: SPR (Biacore), mAb captured on anti-Fc CM5 chip, huCD38 injected; n = 3
T4 construct: Soluble analyte in SPR; the construct (limits, tags) is not described; also called huCD38

[2] = target: T4, human CD38; assay: SPR (Biacore), mAb captured on anti-Fc chip, after thermal stress of the mAb (14 days at 40 C); n = 3
[3] = target: T5, FcγRIIIa (CD16a) extracellular domain with V158, C-terminal histag (human, UniProt P08637 17-208); assay: SPR (BIAcore 2000), FcγRIIIa-histag captured on anti-His IgG, mAb 8-256 nM, two-state fit
T5 construct: also called FcγRIIIa 158V; FcγRIIIa-histag; not shown: C-terminal histag

[4] = target: T1, FcγRIIa 131H expressed on HEK cells; assay: flow cytometry on HEK293T cells expressing the receptor, FITC anti-human IgG; mean Kd
[5] = target: T6, FcγRIIIa 158V expressed on cells (human, UniProt P08637 17-254); assay: flow cytometry on HEK293T cells expressing the receptor
T6 construct: also called HEK293T-FcγRIIIa-158V; FcγRIIIa (CD16a) 158V

[6] = target: T2, FcγRIIa extracellular domain with H131, …; assay: AlphaScreen competition (relative IC50): untagged mAb displaces biotinylated anti-CD38 native IgG1 from FcγRIIa-histag
[7] = target: T1, FcγRIIa 131H expressed on HEK cells; assay: flow cytometry on HEK293T cells expressing the receptor
[8] = target: T6, FcγRIIIa 158V expressed on cells; assay: cell-based or functional assay
[9] = target: T6, FcγRIIIa 158V expressed on cells; assay: flow cytometry on HEK293T cells expressing the receptor, FITC anti-human IgG; mean apparent Kd
[10] = target: T6, FcγRIIIa 158V expressed on cells; assay: cell-based or functional assay; remark: listed apart in the source
[11] = target: T7, FcγRI expressed on HEK cells (UniProt P12314 16-374, limits assumed); assay: flow cytometry on HEK293T cells expressing the receptor
T7 construct: whole, on cells; also called HEK293T-FcγRI

[12] = target: T3, FcγRIIb expressed on HEK cells; assay: as above
[13] = target: T6, FcγRIIIa 158V expressed on cells; assay: cell-based or functional assay; remark: listed apart in the source
[14] = target: T7, FcγRI expressed on HEK cells; assay: flow cytometry on HEK293T cells expressing the receptor, FITC anti-human IgG; mean Kd
[15] = target: T3, FcγRIIb expressed on HEK cells; assay: as above
[16] = target: T5, FcγRIIIa (CD16a) extracellular domain …; assay: SPR, against mAb 1
[17] = target: T3, FcγRIIb expressed on HEK cells; assay: flow cytometry on HEK293T cells expressing the receptor; the text calls it fold lower affinity

Binder | Kd [1] | koff [1] | kon [1] | Kd [2] | koff [2] | kon [2] | Kd [3] | Kd [4] | Fold difference in affinity versus mAb 1 [5] | IC50 [6] | difference in affinity versus mAb 1 [7] | ADCC of RPMI-8226 cells, EC50 (calcein release) [8] | Kd [9] | ADCC of MOLP-8 cells, EC50 (calcein release) [10] | difference in affinity versus mAb 1 [11] | ADCC of KMS-12BM cells, EC50 (calcein release) [13] | Kd [14] | also measured
B1 | 0.699 nM | 0.00188 s⁻¹ | 2.78e+06 M⁻¹ s⁻¹ | 0.828 nM | 0.00236 s⁻¹ | 2.95e+06 M⁻¹ s⁻¹ | – | – | – | – | – | – | – | – | – | – | – | –
B2 | 0.415 nM | 0.0013 s⁻¹ | 3.18e+06 M⁻¹ s⁻¹ | 0.394 nM | 0.00133 s⁻¹ | 3.39e+06 M⁻¹ s⁻¹ | – | – | – | – | – | – | – | – | – | – | – | –
B3 | 0.191 nM | 0.00065 s⁻¹ | 3.51e+06 M⁻¹ s⁻¹ | 0.198 nM | 0.000663 s⁻¹ | 3.53e+06 M⁻¹ s⁻¹ | – | – | – | – | – | – | – | – | – | – | – | –
B4 | 0.385 nM | ~0.00119 s⁻¹ | 3.1e+06 M⁻¹ s⁻¹ | 0.346 nM | 0.00128 s⁻¹ | 3.86e+06 M⁻¹ s⁻¹ | – | – | – | – | – | – | – | – | – | – | – | –
B5 | – | – | – | – | – | – | 425 nM | 1180 nM | 1 fold | 268 nM | 1 fold | 2.45 ng/mL | 165 nM | 3.3 ng/mL | 1 fold | 41 ng/mL | 24.2 nM | difference in affinity versus mAb 1 [12]: 1 fold; Kd [15]: 1300 nM
B6 | – | – | – | – | – | – | 47 nM | 840 nM | 9.4 fold | 119 nM | 1.4 fold | 0.09 ng/mL | 17.6 nM | 0.1 ng/mL | 1.8 fold | 0.65 ng/mL | 13.5 nM | fold higher affinity than mAb 1 [16]: 9 fold; difference in affinity versus mAb 1 [17]: 3.9 fold
B7 | – | – | – | – | – | – | 47 nM | 544 nM | 5.9 fold | 58 nM | 2.2 fold | 0.09 ng/mL | 28.1 nM | 0.12 ng/mL | 1.5 fold | 0.45 ng/mL | 15.9 nM | fold higher affinity than mAb 1 [16]: 9 fold; difference in affinity versus mAb 1 [17]: 1.8 fold; Kd [15]: 544 nM

Reference: patent publication US20200399391A1 (Sanofi, published 2020)
